T1: β-catenin (on the human protein microarray) (human, UniProt P35222 1-781)
T1 sequence (looked up): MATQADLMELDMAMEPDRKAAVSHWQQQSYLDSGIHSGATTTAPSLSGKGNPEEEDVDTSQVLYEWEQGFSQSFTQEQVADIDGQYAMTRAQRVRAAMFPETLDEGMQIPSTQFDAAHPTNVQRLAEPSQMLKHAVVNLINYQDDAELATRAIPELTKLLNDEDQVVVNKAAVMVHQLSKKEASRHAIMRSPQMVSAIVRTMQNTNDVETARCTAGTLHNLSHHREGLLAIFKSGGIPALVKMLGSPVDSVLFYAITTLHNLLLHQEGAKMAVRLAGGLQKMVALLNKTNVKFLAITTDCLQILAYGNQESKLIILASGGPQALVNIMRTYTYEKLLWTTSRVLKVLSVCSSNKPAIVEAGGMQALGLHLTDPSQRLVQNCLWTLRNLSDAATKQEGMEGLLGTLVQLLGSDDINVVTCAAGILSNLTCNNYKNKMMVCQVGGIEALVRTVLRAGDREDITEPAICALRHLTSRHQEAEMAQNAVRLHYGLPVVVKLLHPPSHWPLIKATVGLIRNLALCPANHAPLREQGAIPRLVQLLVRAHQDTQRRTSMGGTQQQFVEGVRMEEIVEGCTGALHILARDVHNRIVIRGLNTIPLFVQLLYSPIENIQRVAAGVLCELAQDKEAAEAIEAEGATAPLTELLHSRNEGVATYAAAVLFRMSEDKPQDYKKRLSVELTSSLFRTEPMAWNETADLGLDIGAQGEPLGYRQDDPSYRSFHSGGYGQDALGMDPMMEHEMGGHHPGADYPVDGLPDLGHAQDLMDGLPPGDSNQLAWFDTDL

B1: Flag (N-terminus)- and V5 (C-terminus)-tagged recombinant human Lmbr1l protein (natural protein, UniProt Q6UX01 1-489, looked up)
chain: MEAPDYEVLSVREQLFHERIRECIISTLLFATLYILCHIFLTRFKKPAEFTTVDDEDATVNKIALELCTFTLAIALGAVLLLPFSIISNEVLLSLPRNYYIQWLNGSLIHGLWNLVFLFSNLSLIFLMPFAYFFTESEGFAGSRKGVLGRVYETVVMLMLLTLLVLGMVWVASAIVDKNKANRESLYDFWEYYLPYLYSCISFLGVLLLLVCTPLGLARMFSVTGKLLVKPRLLEDLEEQLYCSAFEEAALTRRICNPTSCWLPLDMELLHRQVLALQTQRVLLEKRRKASAWQRNLGYPLAMLCLLVLTGLSVLIVAIHILELLIDEAAMPRGMQGTSLGQVSFSKLGSFGAVIQVVLIFYLMVSSVVGFYSSPLFRSLRPRWHDTAMTQIIGNCVCLLVLSSALPVFSRTLGLTRFDLLGDFGRFNWLGNFYIVFLYNAAFAGLTTLCLVKTFTAAVRAELIRAFGLDRLPLPVSGFPQASRKTQHQ

Tests used:
[1] = target: T1, β-catenin (on the human protein …); experiment: peptide or protein array
[2] = target: B1; experiment: peptide or protein array

binding result [1]	binding result [2]	Binder
binds		B1
	binds	casein kinase 1 ε (on the human protein microarray) (natural protein, UniProt P49674 1-416, looked up) MELRVGNKYRLGRKIGSGSFGDIYLGANIASGEEVAIKLECVKTKHPQLHIESKFYKMMQGGVGIPSIKWCGAEGDYNVMVMELLGPSLEDLFNFCSRKFSLKTVLLLADQMISRIEYIHSKNFIHRDVKPDNFLMGLGKKGNLVYIIDFGLAKKYRDARTHQHIPYRENKNLTGTARYASINTHLGIEQSRRDDLESLGYVLMYFNLGSLPWQGLKAATKRQKYERISEKKMSTPIEVLCKGYPSEFSTYLNFCRSLRFDDKPDYSYLRQLFRNLFHRQGFSYDYVFDWNMLKFGAARNPEDVDRERREHEREERMGQLRGSATRALPPGPPTGATANRLRSAAEPVASTPASRIQPAGNTSPRAISRVDRERKVSMRLHRGAPANVSSSDLTGRQEVSRIPASQTSVPFDHLGK

— article PMC7206793 (Science (New York, N.Y.), 2019)
